Source: paper PMC3923783, “Competitive and Cooperative Interactions Mediate RNA Transfer from Herpesvirus Saimiri ORF57 to the Mammalian Export Adaptor ALYREF” (PLoS Pathogens, 2014)

B1: ORF57^8–120 (domain or fragment)
chain: GISSDDDFDSSDSSSDEEESDTSPQIMKSDVTMASPPSTPEPSPDVSASTSNLKRERQRSPITWEHQSPLSRVYRSPSPMRFGKRPRISSNSTSRSCKTSWADRVREAAAQRR
notes: Herpesvirus saimiri (HVS) ORF57 protein, residues 8-120; Construct of the NMR and fluorescence experiments; It may be the same construct as the hexa-histidine ORF57^8–120; also called ORF57 aa8–120; ORF57(aa8–120); source: E. coli BL21-RP, purified (gel filtration), as described previously [30]
B2: ALYREF fragment aa1–155 (ALYREF^1–155) (domain or fragment)
chain: not shown
notes: source: E. coli BL21-RP, purified (gel filtration), as described previously [30]

Columns and labels:
[1] = target: B2; experiment: other fluorescence titration; blue shift of tryptophan emission (barycentric mean) with rising concentrations of equimolar ALYREF^1–155 and ORF57^8–120; buffer F (20 mM phosphate pH 6.2, 50 mM NaCl, 50 mM L-Arg+L-Glu, 5 mM EDTA, 1 mM TCEP); apparent Kd, quadratic equation or DynaFit; conditions: both partners purified
ORF57^8–120 = target: B1; experiment: other fluorescence titration; 14merS RNA titrated into 10 µM 1:1 ALYREF^1–155 - ORF57^8–120 mixture in buffer F; three-equation equilibrium model (DynaFit); the constant of ALYREF for the ORF57-RNA complex inferred from the thermodynamic cycle; apparent; conditions: both partners purified

Binder B1 has a Kd [1] of 2.56 ± 0.2 µM.

For B2, the “KD of ALYREF for the ORF57-RNA (14merS) complex, inferred from the thermodynamic cycle” value (ORF57^8–120) was 0.52 µM.
